Experimental data published in paper PMC9073949 (Crystal Growth & Design, 2022).
“And” between values parts separate entries of the source, which are not always exact repeats. Equal values may be shown once. Read-outs that look alike come from different tables or passages of the source.

What was measured:
[1] = Dynamic light scattering: diffusion coefficient and polydispersity of insulin; format: physicochemical; details: DLS
Method: The solutions were prepared identically to the crystallization solutions which have been described previously. The solutions were filtered with a 0.22 μm pore size filter into a disposal cuvette (polystyrene) which then was loaded into a Zetasizer μV (Malvern, UK).

[2] = for solubility: equilibrium with crystals, UV 280 nm
Method: (§1) Precise temperature control was achieved by using incubators held at a constant temperature. Citric acid buffer (0.1 M) was prepared at different pH levels by varying the ratio between citric acid and tri-sodium citrate. The pH was determined using a Jenway 4330 pH and conductivity meter (Jenway, UK) with an instrument resolution of around ±0.02 pH units. Zinc sulfate (ZnSO4), zinc chloride (ZnCl2), or zinc acetate (ZnAc) were dissolved in citric acid buffer as a zinc salt stock solution. […] Each experimental condition was repeated multiple times, and the error bars represent the deviation between these repetitions. The desupersaturation (crystallization occurs and the solution concentration decreases) was monitored by measuring the UV–vis absorption at a wavelength of 280 nm with a NanoDrop One^c microvolume UV–vis spectrophotometer (Thermo Fischer Scientific, USA). A sample as small as 10–20 μL was withdrawn from the crystallizer (Eppendorf tube) and was centrifuged (6000 rpm, 10–20 min). […] An extinction coefficient of 1.04 mL·mg^–1·cm^–1 was utilized.[32] Multiple dilutions for every sample were made to minimize dilution errors. The crystal slurry which remained in the centrifuged sample was observed underneath an optical microscope (CX-41, Olympus, Japan) to confirm that the decrease in concentration is because of crystallization and not due to other phenomena, such as amorphous precipitation.
(§2) This lag time is commonly termed as induction time.[33] We found the induction time graphically by finding the intersection between the tangents of the point of inflection (tangent of the biggest gradient after the solution concentration dropped substantially) and the initial concentration (which stays constant until the solution concentration drops substantially). A graphical visualization and a detailed definition and justification of induction time can be found in the Supporting Information.
To ensure that the true solubility concentration was measured, the samples were gently mixed frequently with pipettes once the crystallization experiment had finished. […] Once the concentration had stabilized, that is, no significant change over multiple days, this concentration was taken as solubility.

[3] = Insulin crystallization kinetics (desupersaturation, induction time, crystal yield); format: physicochemical
Method: as §1, §2
The crystal yield was calculated to evaluate the performance of crystallization. […] The yield can be either expressed in terms of concentration or supersaturation ratio, which is St = ct/c* for an ideal solution with […] at time zero. [drawing 2] 2

[4] = Static light scattering (Debye plot): second osmotic virial coefficient B22 and derived activity coefficient; format: physicochemical; details: for B22 (second virial coefficient): SLS Debye plot, ≤ 3 mg·mL^–1, 24.0 °C
Excerpt: The procedure was identical to the DLS experiments, but instead of disposable cuvettes, a quartz cuvette was utilized. After each run, the quartz cuvette was carefully washed with deionized water, ethanol, and IPA followed by drying to remove any impurities and dust before further usage for the next sample. A solvent refractive index of 1.3304 and a refractive index increment of Δn/Δc = 0.183 were utilized.[34] The second virial coefficient was obtained by using Debye plots at low protein concentration (≤ 3 mg·mL^–1).

[5] = pH 6.0, St=0 = 10.0, ZnSO4, 24.0 °C
[6] = pH 6.0, initial insulin 3 mg·mL^–1, ZnSO4 […], 24.0 °C

## Human insulin
[1]; pH 6.0, lower end of insulin concentrations probed, 24.0 °C
  diffusion coefficient: 0.99 × 10^–6 cm^2·s^–1
[1]; pH 6.0, upper end of insulin concentrations probed, 24.0 °C
  diffusion coefficient: 0.86 × 10^–6 cm^2·s^–1
[1]; pH 6.7, Ac^2– anion, cins = 3 mg·mL^–1, 24.0 °C
  diffusion coefficient: 0.87 ± 0.1·10^–3 10^–6 cm^2·s^–1
[1]; pH 6.7, Cl^– anion, cins = 3 mg·mL^–1, 24.0 °C
  diffusion coefficient: 0.87 ± 0.5·10^–3 10^–6 cm^2·s^–1
[2]; pH 6.0, ZnSO4, 73 mM citric buffer, 7 mM HEPES, 24.0 °C
  solubility: 0.14 mg·mL^–1
[2]; pH 6.0 to pH 6.7, ZnSO4, 24.0 °C
  increase in solubility: 5 fold
[2]; pH 6.5, ZnSO4, 73 mM citric buffer, 7 mM HEPES, 24.0 °C
  solubility: 0.41 mg·mL^–1
[2]; pH 6.5 to pH 6.7 (0.2 pH units), ZnSO4, 24.0 °C
  increase in solubility: roughly 70%
[2]; pH 6.7, ZnSO4 (SO4^2– anion), thermodynamic, equilibrium with crystals after crystallization, 73 mM citric buffer, 7 mM HEPES, 24.0 °C, monitored up to 4 weeks, UV 280 nm of centrifuged supernatant
  insulin equilibrium concentration (solubility c*): 0.70 mg·mL^–1 and 0.70 ± 0.03 mg·mL^–1
[3]; St=0 = 10.0, pH 6.0
  desupersaturation rate after a yield of 85% was achieved: 0.03 h^–1
[3]; St=0 = 10.0, pH 6.2
  desupersaturation rate after a yield of 85% was achieved: 0.01 h^–1
[3]; St=0 = 10.0, pH 6.5
  desupersaturation rate after a yield of 85% was achieved: 0.07 h^–1
[3]; St=0 = 10.0, pH 6.7
  desupersaturation rate after a yield of 85% was achieved: 0.02 h^–1
[3]; pH 6.0, St=0 = 5.6
  t50% (time required to achieve a yield of 50%): 128.0 h
[3]; pH 6.0, St=0 = 5.6, ZnSO4, 24.0 °C
  induction time: 81.0 h
[3]; [5]
  crystallization rate ΔS/Δt: 0.18 h^–1
  induction time: 26.5 h
[3]; [6]
  time after which the concentration drops: 4.0 h
  time to reach quasi-equilibrium concentration: roughly 20.0 h
[3]; pH 6.0, initial supersaturation ratio increased from 5.6 to 10.0
  reduction in induction time: 67%
[3]; pH 6.0 to pH 6.7 at St=0 = 7.4
  decrease in induction time: roughly 81%
[3]; pH 6.0 to pH 6.7 at St=0 = 10.0
  decrease in induction time: ~88%
[3]; pH 6.5, initial supersaturation ratio increased from 5.6 to 10.0
  reduction in induction time: 77%
[3]; pH 6.7, St=0 = 5.7, 12.0 h to 41.0 h, ZnSO4, 24.0 °C
  crystallization rate ΔS/Δt: 0.13 h^–1
[3]; pH 6.7, St=0 = 10.0, 1.3 h to 26.0 h, ZnSO4, 24.0 °C
  crystallization rate ΔS/Δt: 0.32 h^–1
[3]; pH 6.7, initial insulin 3 mg·mL^–1, ZnSO4 […], 24.0 °C
  time to reach quasi-equilibrium concentration: ~80.0 h
[4]; pH 6.0
  B22 (second virial coefficient): –4.23 × 10^–4 mL·mol·g^–2
[4]; pH 6.2
  B22 (second virial coefficient): –2.47 × 10^–4 mL·mol·g^–2
[4]; pH 6.5
  B22 (second virial coefficient): –4.18 × 10^–4 mL·mol·g^–2
[4]; pH 6.7
  B22 (second virial coefficient): –4.0 × 10^–4 mL·mol·g^–2
[4]; pH 6.7, calculated from B22 with eq 4, 24.0 °C
  γ (activity coefficient): 0.96
